This is an account of results in the supplement of paper PMC9112550, “Optimization of the antimicrobial peptide Bac7 by deep mutational scanning” (BMC Biology, 2022).
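Note: peptides expressed intracellularly from a pBAD plasmid library in pooled LB shake-flask culture, induced with 0.3% L-arabinose, DNA abundance read by NGS, three biological replicates, DESeq2 with apeglm shrinkage.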

For the data set, the system named is Escherichia coli TOP10. Nature of the data set: shrunken log2 fold change of peptide-encoding DNA abundance (4.5 h post-induction vs induction); higher = less antimicrobial activity (less host growth inhibition). Conditions: time post-induction: 4.5 h; library: site-saturation at positions 5, 18, 19, 20.
Consider RRIRWRPPRLPRPRPRPHYLPRP, for which the “shrunken log2 fold change” value is -0.106.

RRIRSRPPRLPRPRPRPVAFPRP: the “shrunken log2 fold change” value turned out to be 0.0876. As to RRIRPRPPRLPRPRPRPRVQPRP, the “shrunken log2 fold change” value came out at 0.398.

Consider RRIRGRPPRLPRPRPRPGACPRP, for which the “shrunken log2 fold change” value came to 0.911. Under RRIRLRPPRLPRPRPRPPPWPRP stands 0.892; under RRIRVRPPRLPRPRPRPPGHPRP, 0.246; under RRIRQRPPRLPRPRPRPAWHPRP, 0.0212. Under RRIRPRPPRLPRPRPRPLFIPRP stands -0.459; under RRIRRRPPRLPRPRPRPYHLPRP, -0.307; under RRIRPRPPRLPRPRPRPVKSPRP, -0.0156. The result for RRIRDRPPRLPRPRPRPLVGPRP reads 0.337; that for RRIRDRPPRLPRPRPRPAIGPRP, 0.325.

Consider RRIRCRPPRLPRPRPRPWKTPRP, for which the “shrunken log2 fold change” value is -0.152. The result for RRIRMRPPRLPRPRPRPETAPRP reads 4.06; that for RRIRLRPPRLPRPRPRPCEEPRP, -0.0266; that for RRIRQRPPRLPRPRPRPEPCPRP, -0.0944. Consider RRIRGRPPRLPRPRPRPRGFPRP, for which the “shrunken log2 fold change” value stood at 0.817. The result for RRIRFRPPRLPRPRPRPPPGPRP reads 1.34; that for RRIRHRPPRLPRPRPRPPCPPRP, -0.0235; that for RRIRMRPPRLPRPRPRPMDVPRP, -0.0209. Under RRIRRRPPRLPRPRPRPCVTPRP stands -0.0627; under RRIRTRPPRLPRPRPRPFQQPRP, 0.0654; under RRIRIRPPRLPRPRPRPRKEPRP, 0.00489. For RRIRYRPPRLPRPRPRPCVAPRP, the “shrunken log2 fold change” value was -0.11. Under RRIRIRPPRLPRPRPRPARGPRP stands 0.624; under RRIRKRPPRLPRPRPRPAQHPRP, 0.65.

Turning to RRIRERPPRLPRPRPRPDVNPRP, the “shrunken log2 fold change” value is -0.0793. With RRIRPRPPRLPRPRPRPDSVPRP, the “shrunken log2 fold change” value was 0.195. Take RRIRERPPRLPRPRPRPVGRPRP: the “shrunken log2 fold change” value was found to be 0.233.

With RRIRQRPPRLPRPRPRPPVWPRP, the “shrunken log2 fold change” value is 0.223.

For the sequence RRIRGRPPRLPRPRPRPFVEPRP, the “shrunken log2 fold change” value came out at 0.236. Regarding RRIRARPPRLPRPRPRPKCFPRP, the “shrunken log2 fold change” value is -0.0172. As to RRIRWRPPRLPRPRPRPMKFPRP, the “shrunken log2 fold change” value was -0.278. Under RRIRTRPPRLPRPRPRPLISPRP stands -0.145. Under RRIRGRPPRLPRPRPRPHFQPRP stands -0.099; under RRIRLRPPRLPRPRPRPWSHPRP, 0.00674; under RRIRCRPPRLPRPRPRPVDSPRP, 0.176. The result for RRIRARPPRLPRPRPRPTLAPRP reads 1.65; that for RRIRSRPPRLPRPRPRPYGSPRP, -0.0102; that for RRIRVRPPRLPRPRPRPKHHPRP, -0.357. Take RRIRCRPPRLPRPRPRPAEYPRP: the “shrunken log2 fold change” value was -0.335. Under RRIRRRPPRLPRPRPRPFVNPRP stands -0.049. The result for RRIRPRPPRLPRPRPRPYLWPRP reads -0.769. The result for RRIRLRPPRLPRPRPRPIFGPRP reads 0.0171; that for RRIRFRPPRLPRPRPRPHCCPRP, -0.166; that for RRIRKRPPRLPRPRPRPRGTPRP, 0.648. Turning to RRIRFRPPRLPRPRPRPTFPPRP, the “shrunken log2 fold change” value is -0.0193. The result for RRIRYRPPRLPRPRPRPVWWPRP reads 0.113; that for RRIRCRPPRLPRPRPRPNSVPRP, -0.143. As for RRIRDRPPRLPRPRPRPKNMPRP, the “shrunken log2 fold change” value is -0.482.
